For this data set, the system named is MS2 coat protein. Kind of data set: apparent KD of MS2 coat protein; designed switch direction (-1 OFF switch, 1 ON switch): 1; higher = weaker reporter binding. The method, boiled down:
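On Illumina chips, designed RNA switches with common flanks were made by stalled E. coli RNA polymerase. Titrations with SNAP-549-labelled MS2 coat protein, doubling from 0.7 or 1.5 nM to 3 µM, were done with no input, with 200 uM small-molecule ligand, or with an oligonucleotide input. Apparent KD is the median per design over clusters, from curve fits of normalised cluster fluorescence.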

[1] abbreviates: input ligand: microRNA oligo, concentration not stated.
Setting [2] is: Eterna round: R95, input ligand: FMN 200 uM.
Where [3] appears, read: Eterna round: R95, input ligand: microRNA oligo, concentration not stated.
[4] abbreviates: Eterna round: R95, input ligand: none.

The source of these data is the supplement of paper PMC9170038.

As to “UGGUACAUGGGAGGAUAUCAUGUAGAAACAUGAGGAUCACCCAUGUAGAUGGCAGCUUUGCUGAAUGAGAAGGCCCAUGUACCU [JL SSNG1 3.58] (Eterna round: R96, puzzle: Same State NG 2)”, the “apparent KD of MS2 coat protein” value came to 15.6 nM (input ligand: FMN 200 uM), 18.9 nM under setting [1] and 22.8 nM (input ligand: none).

As for “UGGUACAUGGGAGGAUAUCAUGUAGAAACAUGAGGAUCACCCAUGUAGGUGGCCGGUAACCGGAAUGAGAAGGCCCAUGUACCU [JL SSNG1 3.62] (Eterna round: R96, puzzle: Same State NG 2)”, the “apparent KD of MS2 coat protein” value (input ligand: FMN 200 uM) is 48.6 nM, the “apparent KD of MS2 coat protein” value under setting [1] was found to be 48.6 nM and the “apparent KD of MS2 coat protein” value (input ligand: none) was 61.1 nM.

As to “UGGUACAUGGGAGGAUAUCAUGUAGAGACAUGAGGAUCACCCAUGUAGAUGGCCGGUAACCGGGAUGAGAAGGCCCAUGUACCU [JL SSNG1 3.65] (Eterna round: R96, puzzle: Same State NG 2)”, the “apparent KD of MS2 coat protein” value reads like this: (input ligand: FMN 200 uM) 161 nM; under setting [1], 56.3 nM; (input ligand: none) 151 nM.

As to “UGGUACAUGGGAGGAUAUGGGCAAGAGACAUGAGGAUCACCCAUGUAUUAAAAGCCGAAAGGCAUCUAGAAGGCCCAUGUACCU [JL SSNG1 3.86] (Eterna round: R96, puzzle: Same State NG 2)”, the “apparent KD of MS2 coat protein” value (input ligand: FMN 200 uM) amounted to 13.3 nM, the “apparent KD of MS2 coat protein” value under setting [1] was found to be 55.9 nM and the “apparent KD of MS2 coat protein” value (input ligand: none) was found to be 86.7 nM.

In the case of “UGGUACAUGGGAGGAUAUGGGCAUGAGACAUGAGGAUCACCCAUGUAUUAAAAGCCGAAAGGCAUCUAGAAGGCCCAUGUACCU [JL SSNG1 3.85] (Eterna round: R96, puzzle: Same State NG 2)”, the “apparent KD of MS2 coat protein” value (input ligand: FMN 200 uM) came to 17.1 nM, the “apparent KD of MS2 coat protein” value under setting [1] came to 137 nM and the “apparent KD of MS2 coat protein” value (input ligand: none) amounted to 214 nM.

As to “UGGUACAUGGGAGGAUAUGGGUUGAUAACAUGAGGAUCACCCAUGUUAAAUAUGCCGAGAGGCAACUAGAAGGCCCAUGUACCU [JL SSNG1 3.00] (Eterna round: R96, puzzle: Same State NG 2)”, the “apparent KD of MS2 coat protein” value runs as follows: (input ligand: FMN 200 uM) 28.5 nM; under setting [1], 380 nM; (input ligand: none) 644 nM.

For “UGUACAUGAGGAUCACCCAUGUCUAGACAUGUUAAUAUAAUGUAGGAUAUAUAAAAUUUAAAUUAAUAGAAGGACAAUUUUUUU [JMF's solution 2] (Eterna round: R96, puzzle: Same State NG 3)”, the “apparent KD of MS2 coat protein” value (input ligand: FMN 200 uM) was determined as 113 nM, the “apparent KD of MS2 coat protein” value under setting [1] was found to be 155 nM and the “apparent KD of MS2 coat protein” value (input ligand: none) is 212 nM.

“UGUCCAGCCUGAGCUGGACAAAAGCAUGUACAUGAGGAUCACCCAUGUUCAUGUACAAGCUUUUUGCUCGUCUUACA [salish99_208a_r3_080] (puzzle: Sensor for hsa-mir-208a)”: the “apparent KD of MS2 coat protein” value came to 347 nM under setting [2], 15.2 nM under setting [3] and 529 nM under setting [4].

Turning to “UGUUGUAUUACAGGAUAUCUAGUUUUUUUAUUUAGAGAAGGGUAUUCACAUGAGGAUCACCCAUGUAUAUACGAGGAAGUUGUG [JMF's solution 33] (Eterna round: R96, puzzle: Same State NG 1)”, the “apparent KD of MS2 coat protein” value under setting [1] amounted to 36.4 nM.

In the case of “UGUUGUAUUACAGGAUAUCUAUUAGUUGUAUUUAGAGAAGGGUAUUCACAUGAGGAUCACCCAUGUAUAUACGAGGAAGUUGUG [JMF's solution 92] (Eterna round: R96, puzzle: Same State NG 1)”, the “apparent KD of MS2 coat protein” value amounted to 79.8 nM (input ligand: FMN 200 uM), 44.1 nM under setting [1] and 59.7 nM (input ligand: none).

As for “UGUUGUAUUACAGGAUAUCUAUUAUUUGUAUUUAGAGAAGGGUAUUCACAUGAGGAUCACCCAUGUAUAUACGAGGAAGUUGUG [JMF's solution 20] (Eterna round: R96, puzzle: Same State NG 1)”, the “apparent KD of MS2 coat protein” value under setting [1] worked out at 42.4 nM.

With “UGUUGUAUUACAGGAUAUCUAUUAUUUUUACUUAGAGAAGGGUAUUCACAUGAGGAUCACCCAUGUAUAUACGAGGAAGUUGUG [JMF's solution 27] (Eterna round: R96, puzzle: Same State NG 1)”, the “apparent KD of MS2 coat protein” value under setting [1] is 38.2 nM.

As for “UGUUGUAUUACAGGAUAUCUAUUGUUUUUUUUUAGAGAAGGGUAUUCACAUGAGGAUCACCCAUGUAUAUACGAGGAAGUUGUG [JMF's solution 79] (Eterna round: R96, puzzle: Same State NG 1)”, the “apparent KD of MS2 coat protein” value under setting [1] amounted to 43.2 nM.

As to “UGUUGUUAAUUAGGAUAUGGGCACAUGAGGAUCACCCAUGUAUUUUCGAUGCUAUGUGGAGACGUCUAGAAGGGAUGGCUAACA [SameState NG2 #88] (Eterna round: R96, puzzle: Same State NG 2)”, the “apparent KD of MS2 coat protein” value by setting is: (input ligand: FMN 200 uM) 254 nM; under setting [1], 151 nM; (input ligand: none) 158 nM.

“UUAAAACAUGAGGAUCACCCAUGUAAUAAUAUGGGAGGAUAUCAGAAUGUAUGUAUGUAAUGAGAAGGCCUAAAUG [Mat - Same State 1 - Mod of Eli - D77] (puzzle: Same State 1)”: the “apparent KD of MS2 coat protein” value reads like this: under setting [2], 70.4 nM; under setting [3], 156 nM; under setting [4], 398 nM.

As for “UUAAAACAUGAGGAUCACCCAUGUCAACAAAGUCGAGGAUAUGGGCAAAUAAAAUAAGAACCAGAAGGCGAAUAAA [salish99_SS1_r3_002] (puzzle: Same State 1)”, the “apparent KD of MS2 coat protein” value was found to be 39.5 nM under setting [2], 245 nM under setting [3] and 412 nM under setting [4].

“UUAAUAAUGUUAGGAUAUACAUGAGGAAUCCUCGUAGAAGGAACAUGACAUGAGGAUCACCCAUGUAGCGCUCCGAAGAGCGCA [Mat - Same State NG 1 - JL mod - D46] (Eterna round: R96, puzzle: Same State NG 1)”: the “apparent KD of MS2 coat protein” value reads like this: (input ligand: FMN 200 uM) 254 nM; under setting [1], 115 nM; (input ligand: none) 161 nM.

For “UUAAUGAUGUAAGGAUAUACAUGAGGAAUUCUCGUAGAAGGUACAUGACAUGAGGAUCACCCAUGUAUCGCUCCGUAGAGCGUA [JL SSNG1 1.12] (Eterna round: R96, puzzle: Same State NG 1)”, the “apparent KD of MS2 coat protein” value came to 190 nM (input ligand: FMN 200 uM), 119 nM under setting [1] and 79.7 nM (input ligand: none).

With “UUAAUGAUGUAAGGAUAUACAUGAGGAUUUCUCGUAGAAGGUACAGGACAUGAGGAUCACCCAUGUGUCGCUCCGUAGAGCGUA [JL SSNG1 1.08] (Eterna round: R96, puzzle: Same State NG 1)”, the “apparent KD of MS2 coat protein” value is, setting by setting: (input ligand: FMN 200 uM) 349 nM; under setting [1], 414 nM; (input ligand: none) 525 nM.

As to “UUAAUUUGUUGAGGAUAUUAUGUCAAAAGAGAAGACAUGAGGAUCACCCAUGUGAGAAAAGGUUUUAAGAAGGCAACAUUCAUA [JR_SSNG2_Sub089] (Eterna round: R96, puzzle: Same State NG 2)”, the “apparent KD of MS2 coat protein” value worked out at 39.5 nM (input ligand: FMN 200 uM), 77.7 nM under setting [1] and 115 nM (input ligand: none).

Turning to “UUACUCAUGUAAGGAUAUGCAGCCGAAACGGCUGCAGAAGGUACUAAAAUACAUGAGGAUCACCCAUGUCUUUUUAAUUUAGAC [Mat - Same State NG 1 - JL mod - D83] (Eterna round: R96, puzzle: Same State NG 1)”, the “apparent KD of MS2 coat protein” value runs as follows: (input ligand: FMN 200 uM) 58.4 nM; under setting [1], 28.4 nM; (input ligand: none) 33.3 nM.

For the sequence “UUACUCAUGUAAGGAUAUGCAGCCGUUUCGGCUGCAGAAGGUACUAUAAUACAUGAGGAUCACCCAUGUCUCUAUUAUUUGGUG [salish99_SSNG1_r04_923] (Eterna round: R96, puzzle: Same State NG 1)”, the “apparent KD of MS2 coat protein” value is, setting by setting: (input ligand: FMN 200 uM) 111 nM; under setting [1], 51.1 nM; (input ligand: none) 84.4 nM.

Turning to “UUACUCCCUACAUGAGGAUCACCCAUGUUUUACAAACCCAACGAGGAUAUGUUGAGCGGAUGUAAGCAGAAGGCGUAGGGUAGA [Eternabot solution 37] (Eterna round: R96, puzzle: Same State NG 3)”, the “apparent KD of MS2 coat protein” value reads like this: (input ligand: FMN 200 uM) 143 nM; under setting [1], 16.7 nM; (input ligand: none) 40 nM.

For the sequence “UUAGAAUUGCAAGGAUAUCUAAUGUAGAUAGUAAGAGAAGGUGCUUGAUAGUUACAUGAGGAUCACCCAUGUAUUUGGGUUUAU [JR_SSNG1_Sub057] (Eterna round: R96, puzzle: Same State NG 1)”, the “apparent KD of MS2 coat protein” value under setting [1] amounted to 345 nM.

Regarding “UUAUAACAUGAGGAUCACCCAUGUCAACAAAGUCGAGGAUAUGGGCAAGAAGUGAGAGAACCAGAAGGCGAAUAUU [Mat - Same State 1 - Mod of UCT - D30] (puzzle: Same State 1)”, the “apparent KD of MS2 coat protein” value is, setting by setting: under setting [2], 72 nM; under setting [3], 88.7 nM; under setting [4], 97.4 nM.

Regarding “UUAUAACAUGAGGAUCACCCAUGUCAACAAAGUCGAGGAUAUGGGCAUAGAUUAUAAGAACCAGAAGGCGAAUAUU [Mat - Same State 1 - Mod of UCT - D40] (puzzle: Same State 1)”, the “apparent KD of MS2 coat protein” value runs as follows: under setting [2], 51.8 nM; under setting [3], 117 nM; under setting [4], 118 nM.

Regarding “UUCUCAUUUACAUGAGGAUCACCCAUGUUUUUAUGUCAGAGAUAGGAUAUAGUUCUCUCGUUUUUCUAGAAGGAUCUUUUUAUU [JR_SSNG3_Sub086] (Eterna round: R96, puzzle: Same State NG 3)”, the “apparent KD of MS2 coat protein” value came out at 65.9 nM (input ligand: FMN 200 uM), 41.3 nM under setting [1] and 64.6 nM (input ligand: none).

On to “UUCUCCUUUUUUUACAUGAGGAUCACCCAUGUUUACCCUACGUAGGAUAUCGAUGAGUGUUUGUACGAGAAGGACGUAGUAAGU [JR_SSND3_Sub058] (Eterna round: R96, puzzle: Same State NG 3)”, for which the “apparent KD of MS2 coat protein” value (input ligand: FMN 200 uM) worked out at 37.4 nM, the “apparent KD of MS2 coat protein” value under setting [1] is 106 nM and the “apparent KD of MS2 coat protein” value (input ligand: none) was 137 nM.
